Source: paper PMC9316223, “Can Modern Molecular Modeling Methods Help Find the Area of Potential Vulnerability of Flaviviruses?” (International Journal of Molecular Sciences, 2022)

Legend:
Conditions in all cases: both partners purified
[1] = target: T1, DEF1, fragment of DENV E protein containing 1-184 aa (Dengue virus 3, strain Sri …, UniProt Q6YMS4); assay: far-Western, overlay or dot blot; dot blot: recombinant proteins (1 µL at 1.5 mg/mL) adsorbed onto nitrocellulose; 10H10 mAb 2 μg/mL in PBS, 0.1% Tween-20, 1% BSA for 10 min; detected with goat anti-mouse IgG conjugated with alkaline phosphatase
T1 construct: envelope protein E of dengue virus 3 strain Sri Lanka/1266/2000 (genome AY099336.1), residues 1-184; numbers count on: the E protein (cut product of the polyprotein); Cloned into pET32 (BamHI/XhoI); the vector may add further linker and tag residues; source: E. coli BL21(DE3), purified (lysis buffer with 8 M urea, Ni-IMAC Sepharose)

[2] = target: T2, WEF1, fragment of WNV E protein containing 1-186 aa (West Nile virus, strain 956 …, UniProt P06935); assay: as above
T2 construct: envelope protein E of West Nile virus strain 956 (genome NC_001563.2), residues 1-186; numbers count on: the E protein (cut product of the polyprotein); Cloned into pET32 (BamHI/XhoI); the vector may add further linker and tag residues between thioredoxin and the insert; source: E. coli BL21(DE3), purified (lysis buffer with 8 M urea, Ni-IMAC Sepharose)

[3] = target: T3, ZEF1, fragment of ZIKV E protein containing 1-187 aa (Zika virus, strain MR-766 (KX377335.1), UniProt A0A192GPS6); assay: as above
T3 construct: envelope protein E of Zika virus strain MR-766 (genome KX377335.1), residues 1-187; numbers count on: the E protein (cut product of the polyprotein); Cloned into pET32 (NcoI/XhoI); the vector may add further linker and tag residues; The UniProt entry recalled is of strain Mr 766 from another GenBank record and may differ in a few residues from KX377335.1; source: E. coli BL21(DE3), purified …

[4] = target: T4, TEF1, fragment of TBEV E protein containing 1-187 aa (Tick-borne encephalitis virus, strain …, UniProt Q01299); assay: far-Western, overlay or dot blot
T4 construct: source: E. coli BL21(DE3), purified (lysis buffer with 8 M urea, Ni-IMAC Sepharose)

Measured: binding result

T2 sequence (P06935 whole entry, looked up, the tested form may be a part): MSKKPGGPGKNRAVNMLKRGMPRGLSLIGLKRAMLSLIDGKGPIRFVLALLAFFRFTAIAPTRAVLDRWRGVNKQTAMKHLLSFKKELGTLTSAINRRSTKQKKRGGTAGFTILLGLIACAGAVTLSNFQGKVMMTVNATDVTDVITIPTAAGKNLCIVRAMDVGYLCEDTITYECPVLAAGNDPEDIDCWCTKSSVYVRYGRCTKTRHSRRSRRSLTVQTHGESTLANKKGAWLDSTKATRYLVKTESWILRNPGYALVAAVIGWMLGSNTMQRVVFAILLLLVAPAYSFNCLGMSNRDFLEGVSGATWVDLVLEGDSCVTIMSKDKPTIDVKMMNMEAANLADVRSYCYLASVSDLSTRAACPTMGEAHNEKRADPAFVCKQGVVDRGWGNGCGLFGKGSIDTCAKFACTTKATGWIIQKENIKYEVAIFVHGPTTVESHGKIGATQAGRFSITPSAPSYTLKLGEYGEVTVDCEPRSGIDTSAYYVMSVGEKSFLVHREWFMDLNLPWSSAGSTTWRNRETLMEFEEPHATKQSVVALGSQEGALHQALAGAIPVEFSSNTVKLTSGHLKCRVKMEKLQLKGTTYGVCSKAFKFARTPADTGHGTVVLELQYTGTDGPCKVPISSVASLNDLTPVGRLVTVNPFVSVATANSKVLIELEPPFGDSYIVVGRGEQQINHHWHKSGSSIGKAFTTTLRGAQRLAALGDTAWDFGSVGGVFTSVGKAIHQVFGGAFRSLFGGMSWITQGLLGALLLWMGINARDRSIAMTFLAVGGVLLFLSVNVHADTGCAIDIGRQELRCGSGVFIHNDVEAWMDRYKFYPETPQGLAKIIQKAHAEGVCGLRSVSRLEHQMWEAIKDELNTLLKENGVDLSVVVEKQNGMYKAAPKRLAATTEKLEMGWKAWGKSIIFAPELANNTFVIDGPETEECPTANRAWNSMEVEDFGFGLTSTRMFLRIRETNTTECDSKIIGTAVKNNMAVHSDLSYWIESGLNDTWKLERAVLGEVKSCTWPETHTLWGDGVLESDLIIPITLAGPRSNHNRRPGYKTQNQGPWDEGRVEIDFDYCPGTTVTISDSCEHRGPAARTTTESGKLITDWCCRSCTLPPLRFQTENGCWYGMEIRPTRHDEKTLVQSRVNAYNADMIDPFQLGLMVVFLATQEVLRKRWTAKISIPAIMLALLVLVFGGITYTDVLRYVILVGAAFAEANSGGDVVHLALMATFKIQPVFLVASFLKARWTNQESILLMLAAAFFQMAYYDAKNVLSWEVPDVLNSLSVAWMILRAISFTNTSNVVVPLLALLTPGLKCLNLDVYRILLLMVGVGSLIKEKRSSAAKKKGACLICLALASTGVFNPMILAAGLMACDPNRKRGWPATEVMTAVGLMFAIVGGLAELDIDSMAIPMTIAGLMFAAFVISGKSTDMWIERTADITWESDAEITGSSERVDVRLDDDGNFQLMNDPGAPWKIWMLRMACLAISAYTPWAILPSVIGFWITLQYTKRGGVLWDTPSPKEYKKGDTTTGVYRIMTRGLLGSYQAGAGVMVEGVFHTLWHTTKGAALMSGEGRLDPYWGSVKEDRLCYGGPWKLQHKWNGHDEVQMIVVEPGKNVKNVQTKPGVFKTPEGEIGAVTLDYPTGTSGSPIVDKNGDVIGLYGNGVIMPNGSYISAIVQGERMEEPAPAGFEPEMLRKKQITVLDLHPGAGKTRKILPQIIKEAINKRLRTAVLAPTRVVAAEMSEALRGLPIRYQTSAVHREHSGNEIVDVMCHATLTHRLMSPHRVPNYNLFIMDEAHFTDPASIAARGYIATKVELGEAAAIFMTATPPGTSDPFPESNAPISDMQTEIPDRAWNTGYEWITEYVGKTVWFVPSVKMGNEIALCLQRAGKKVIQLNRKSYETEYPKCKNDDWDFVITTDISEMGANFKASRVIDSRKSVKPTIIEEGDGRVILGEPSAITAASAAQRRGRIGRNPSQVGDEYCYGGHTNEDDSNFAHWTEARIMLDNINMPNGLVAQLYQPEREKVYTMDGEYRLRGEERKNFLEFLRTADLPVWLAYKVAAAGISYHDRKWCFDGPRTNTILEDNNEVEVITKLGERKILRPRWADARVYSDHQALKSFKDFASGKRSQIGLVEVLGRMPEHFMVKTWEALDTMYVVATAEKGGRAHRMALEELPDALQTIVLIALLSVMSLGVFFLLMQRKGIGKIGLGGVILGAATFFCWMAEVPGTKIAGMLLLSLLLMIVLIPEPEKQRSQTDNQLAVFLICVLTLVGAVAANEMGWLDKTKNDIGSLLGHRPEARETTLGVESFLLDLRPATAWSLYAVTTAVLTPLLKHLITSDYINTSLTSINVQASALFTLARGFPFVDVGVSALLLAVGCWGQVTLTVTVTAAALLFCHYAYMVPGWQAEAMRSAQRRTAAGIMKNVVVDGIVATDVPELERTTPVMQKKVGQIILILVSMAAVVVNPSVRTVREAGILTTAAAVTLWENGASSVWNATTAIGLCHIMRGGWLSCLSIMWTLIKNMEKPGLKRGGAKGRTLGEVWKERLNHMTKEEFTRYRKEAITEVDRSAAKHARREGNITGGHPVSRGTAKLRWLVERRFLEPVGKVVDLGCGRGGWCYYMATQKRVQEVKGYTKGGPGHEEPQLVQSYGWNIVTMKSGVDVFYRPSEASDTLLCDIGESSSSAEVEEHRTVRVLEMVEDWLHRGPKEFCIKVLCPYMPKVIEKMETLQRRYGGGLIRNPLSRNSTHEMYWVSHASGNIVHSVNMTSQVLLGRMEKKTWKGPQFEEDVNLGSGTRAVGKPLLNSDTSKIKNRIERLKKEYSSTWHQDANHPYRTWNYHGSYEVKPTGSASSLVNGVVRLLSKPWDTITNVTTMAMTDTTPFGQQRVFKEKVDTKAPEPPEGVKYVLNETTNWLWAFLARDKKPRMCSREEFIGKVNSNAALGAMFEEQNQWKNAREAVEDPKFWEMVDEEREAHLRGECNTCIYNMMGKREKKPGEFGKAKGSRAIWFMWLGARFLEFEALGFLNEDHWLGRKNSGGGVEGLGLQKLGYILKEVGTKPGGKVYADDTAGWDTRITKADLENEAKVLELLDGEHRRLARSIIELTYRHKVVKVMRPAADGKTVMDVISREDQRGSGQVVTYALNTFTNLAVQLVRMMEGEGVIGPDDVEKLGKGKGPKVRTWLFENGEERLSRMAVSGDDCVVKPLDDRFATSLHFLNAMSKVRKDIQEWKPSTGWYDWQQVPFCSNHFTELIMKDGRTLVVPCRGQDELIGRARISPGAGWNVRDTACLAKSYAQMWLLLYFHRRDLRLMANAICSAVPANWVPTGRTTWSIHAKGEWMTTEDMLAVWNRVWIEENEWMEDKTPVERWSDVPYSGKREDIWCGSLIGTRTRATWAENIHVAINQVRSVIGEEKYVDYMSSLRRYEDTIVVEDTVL

B1: 10H10 monoclonal antibody (antibody, V domains shown)
VH: VKLEESGGGLVKPGGSLKLSCAASGFSFSDYYMYWVRQTPEKRLEWVATISDGGSHTSYRDSVKGRFTISRDNGKNNLYLQMSSLKSEDTAMYYCVRGAYWGQGTLVTVSS
VL: not shown
notes: also called 10H10 mAb; 10H10 antibody
binds: all assays above
